Assay [1] addresses T1, truncation mutant of hNMT1s devoid of 28 N-terminal amino acids (Δ28-hNMT1s) (human) (UniProt P30419).
T1 sequence: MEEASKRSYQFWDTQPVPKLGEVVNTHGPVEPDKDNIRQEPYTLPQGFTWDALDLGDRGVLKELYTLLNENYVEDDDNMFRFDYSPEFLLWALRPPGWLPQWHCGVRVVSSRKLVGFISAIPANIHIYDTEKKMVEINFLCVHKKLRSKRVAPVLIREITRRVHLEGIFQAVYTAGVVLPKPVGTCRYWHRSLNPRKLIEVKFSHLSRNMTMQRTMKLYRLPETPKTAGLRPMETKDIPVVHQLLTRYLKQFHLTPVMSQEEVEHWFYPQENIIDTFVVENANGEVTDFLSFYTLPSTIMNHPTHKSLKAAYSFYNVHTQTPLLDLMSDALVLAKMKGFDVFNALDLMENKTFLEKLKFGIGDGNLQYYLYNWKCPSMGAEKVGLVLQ

Assay [2] addresses T2, full-length catalytic domain of human N-myristoyltransferase 1 (hNMT1s) (human) (UniProt P30419).
T2 sequence: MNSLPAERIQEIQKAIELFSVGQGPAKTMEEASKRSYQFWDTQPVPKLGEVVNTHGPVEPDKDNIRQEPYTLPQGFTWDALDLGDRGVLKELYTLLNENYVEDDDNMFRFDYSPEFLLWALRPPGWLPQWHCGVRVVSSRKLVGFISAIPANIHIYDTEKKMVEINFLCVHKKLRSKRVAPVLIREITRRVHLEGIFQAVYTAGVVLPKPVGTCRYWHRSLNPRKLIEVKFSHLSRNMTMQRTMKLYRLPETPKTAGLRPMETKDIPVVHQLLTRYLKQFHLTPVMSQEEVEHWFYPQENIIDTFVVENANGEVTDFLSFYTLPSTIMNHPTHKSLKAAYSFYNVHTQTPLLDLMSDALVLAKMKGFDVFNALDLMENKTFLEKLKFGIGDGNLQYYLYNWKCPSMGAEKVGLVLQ

Turning to GSNKSKPK [peptide substrate corresponding to the N-terminal sequence of pp60src (amino acids 2-9)], the K m (μM) for the peptide in the myristoylation reaction (fluorescence assay of CoA release with CPM; peptide 1-50 μM, MYA 30 μM, 5 nM enzyme, 25°C) is 14.4 µM in assay [1] and 25.7 µM in assay [2].

These data come from article PMC4441422.
